The text below walks through data of patent US10253076B2, “Peptides and combination of peptides for use in immunotherapy against ovarian cancer and other cancers” (immatics biotechnologies GmbH, priority 2015, dated 2019).

The assay has as its target HLA-A*02:01 (Homo sapiens, UniProt P04439, D140Y/D185E/D98H/E176V/E277Q/G131W/G231S/I119V/I121R/I166T/I218V/L300P/L318F/N151K/N90K/P208A/P217A/Q86G/Q94H/R138H/R169H/T345S). Nature of the assay: MHC binding assay (UV-ligand exchange, beta2m ELISA, peptide exchange yield). The note with it: binding of HLA-class I restricted peptides to HLA-A*02:01, ranged by peptide exchange yield (UV-ligand exchange, β2m ELISA). The text has this: Candidate peptides for T cell based therapies according to the present invention were further tested for their MHC binding capacity (affinity). The individual peptide-MHC complexes were produced by UV-ligand exchange, where a UV-sensitive peptide is cleaved upon UV-irradiation, and exchanged with the peptide of interest as analyzed. Only peptide candidates that can effectively bind and stabilize the peptide-receptive MHC molecules prevent dissociation of the MHC complexes. To determine the yield of the exchange reaction, an ELISA was performed based on the detection of the light chain (β2m) of stabilized MHC complexes. The assay was performed as generally described in Rodenko et al. (Rodenko et al., 2006).
96 well MAXISorp plates (NUNC) were coated over night with 2ug/ml streptavidin in PBS at room temperature, washed 4× and blocked for 1 h at 37° C. in 2% BSA containing blocking buffer. […] Peptide-MHC monomers of the UV-exchange reaction were diluted 100 fold in blocking buffer. Samples were incubated for 1 h at 37° C., washed four times, incubated with 2ug/ml HRP conjugated anti-82m for 1 h at 37° C., washed again and detected with TMB solution that is stopped with […]. Absorption was measured at 450 nm. Candidate peptides that show a high exchange yield (preferably higher than 50%, most preferred higher than 75%) are generally preferred for a generation and production of antibodies or fragments thereof, and/or T cell receptors or fragments thereof, as they show sufficient avidity to the MHC molecules and prevent dissociation of the MHC complexes.
A general note: An ELISA detects its analyte on a solid surface through an enzyme-linked reagent.

Take “444 (GLLRDEALAEV; listed as Homo sapiens) [compound 444]”: the Peptide exchange entry is recorded as “″+++″ (≥50% = +++)”.
With “547 (TLDITPHTV; listed as Homo sapiens) [compound 547]”, the Peptide exchange result is reported as “″+++″ (≥50% = +++)”.
On to “123 (NLWDLTDASVV; listed as Homo sapiens) [compound 123]”, for which the Peptide exchange entry is “″+++″ (≥50% = +++)”.
With “341 (SQIALNEKLVNL; listed as Homo sapiens) [compound 341]” the entry was “″+++″ (≥50% = +++)”; with “191 (LLQEGQALEYV; listed as Homo sapiens) [compound 191]”, “″++″ (≥20% = ++)”; with “98 (LIIDQADIYL; listed as Homo sapiens) [compound 98]”, “″+++″ (≥50% = +++)”.
As for “371 (FLQAHLHTA; listed as Homo sapiens) [compound 371]”, the Peptide exchange entry is “″++++″ (≥75% = ++++)”.
On to “243 (LLLNELPSV; listed as Homo sapiens) [compound 243]”, for which the Peptide exchange result is reported as “″+++″ (≥50% = +++)”.
Take “225 (SLLKVLPAL; listed as Homo sapiens) [compound 225]”: the Peptide exchange result is on record as “″+++″ (≥50% = +++)”.
With “241 (SLVEVNPAYSV; listed as Homo sapiens) [compound 241]” the entry was “″+++″ (≥50% = +++)”; with “282 (LLADVVPTT; listed as Homo sapiens) [compound 282]”, “″+++″ (≥50% = +++)”.
With “596 (ALLDQTKTLAESAL; listed as Homo sapiens) [compound 596]”, the Peptide exchange result is “″+++″ (≥50% = +++)”.
As for “571 (LLLTTIPQI; listed as Homo sapiens) [compound 571]”, the Peptide exchange entry is recorded as “″+++″ (≥50% = +++)”.
With “23 (VLLDDIFAQL; listed as Homo sapiens) [compound 23]”, the Peptide exchange result is “″+++″ (≥50% = +++)”.
Take “578 (FLDPGGPMMKL; listed as Homo sapiens) [compound 578]”: the Peptide exchange entry is “″+++″ (≥50% = +++)”.
On to “353 (YLFEMDSSL; listed as Homo sapiens) [compound 353]”, for which the Peptide exchange result was “″++″ (≥20% = ++)”.
For “620 (KLLNKIYEA; listed as Homo sapiens) [compound 620]”, the Peptide exchange result was “″++++″ (≥75% = ++++)”.
With “108 (ALFPGVALLLA; listed as Homo sapiens) [compound 108]” the entry was “″++++″ (≥75% = ++++)”.
With “468 (YLRSVGDGETV; listed as Homo sapiens) [compound 468]”, the Peptide exchange result is “″+++″ (≥50% = +++)”.
As to “245 (SMIDDLLGV; listed as Homo sapiens) [compound 245]”, the Peptide exchange result is listed as “″+++″ (≥50% = +++)”.
For “305 (SIANFSEFYV; listed as Homo sapiens) [compound 305]”, the Peptide exchange result was “″++++″ (≥75% = ++++)”.
With “545 (LLADLLHNV; listed as Homo sapiens) [compound 545]” the entry was “″+++″ (≥50% = +++)”; with “569 (KLVDRTWTL; listed as Homo sapiens) [compound 569]”, “″+++″ (≥50% = +++)”; with “170 (RLQETLSAA; listed as Homo sapiens) [compound 170]”, “″+++″ (≥50% = +++)”.
Consider “366 (RLLDMGETDLML; listed as Homo sapiens) [compound 366]”, for which the Peptide exchange entry is “″+++″ (≥50% = +++)”.
With “278 (QLLDVVLTI; listed as Homo sapiens) [compound 278]” the entry was “″++″ (≥20% = ++)”; with “608 (SLLSVSHAL; listed as Homo sapiens) [compound 608]”, “″+++″ (≥50% = +++)”.
Next, “557 (KLYDDMIRL; listed as Homo sapiens) [compound 557]”: “″+++″ (≥50% = +++)”.
Regarding “1 (SLMEPPAVLLL; listed as Homo sapiens) [compound 1]”, the Peptide exchange result was “″+++″ (≥50% = +++)”.
As to “428 (KLGHTDILVGV; listed as Homo sapiens) [compound 428]”, the Peptide exchange entry was “″++″ (≥20% = ++)”.
With “363 (KVLDVSDLESV; listed as Homo sapiens) [compound 363]” the entry was “″++″ (≥20% = ++)”; with “62 (VLLDVSAGQLLM; listed as Homo sapiens) [compound 62]”, “″++++″ (≥75% = ++++)”.
As to “67 (TLLAEALVTV; listed as Homo sapiens) [compound 67]”, the Peptide exchange result is “″+++″ (≥50% = +++)”.
Regarding “548 (ALWENPESGEL; listed as Homo sapiens) [compound 548]”, the Peptide exchange entry is “″++″ (≥20% = ++)”.
“340 (ALLSMTFPL; listed as Homo sapiens) [compound 340]”: the Peptide exchange entry was “″++++″ (≥75% = ++++)”.
Turning to “157 (SLNDEVPEV; listed as Homo sapiens) [compound 157]”, the Peptide exchange entry is recorded as “″++″ (≥20% = ++)”.
On to “51 (LLPDLEFYV; listed as Homo sapiens) [compound 51]”, for which the Peptide exchange entry is given as “″++++″ (≥75% = ++++)”.
With “263 (LLVSNLDFGV; listed as Homo sapiens) [compound 263]” the entry was “″+++″ (≥50% = +++)”.
Regarding “447 (QLVPALAKV; listed as Homo sapiens) [compound 447]”, the Peptide exchange entry is given as “″++″ (≥20% = ++)”.
As to “7 (SLVGLLLYL; listed as Homo sapiens) [compound 7]”, the Peptide exchange result is “″++++″ (≥75% = ++++)”.
With “97 (SLINGSFLV; listed as Homo sapiens) [compound 97]” the entry was “″+++″ (≥50% = +++)”.
On to “389 (LLADVTHLL; listed as Homo sapiens) [compound 389]”, for which the Peptide exchange entry is “″++″ (≥20% = ++)”.
With “619 (ALQDRVPLA; listed as Homo sapiens) [compound 619]” the entry was “″+++″ (≥50% = +++)”; with “59 (IMEDIILTL; listed as Homo sapiens) [compound 59]”, “″+++″ (≥50% = +++)”; with “133 (KVLSNIHTV; listed as Homo sapiens) [compound 133]”, “″++″ (≥20% = ++)”.
For “597 (KLLEGQVIQL; listed as Homo sapiens) [compound 597]”, the Peptide exchange result is on record as “″+++″ (≥50% = +++)”.
As to “41 (SLMPHIPGL; listed as Homo sapiens) [compound 41]”, the Peptide exchange result was “″+++″ (≥50% = +++)”.
In the case of “230 (ILVDWLVEV; listed as Homo sapiens) [compound 230]”, the Peptide exchange entry is reported as “″+″ (≥10% = +)”.
As to “155 (RVANLHFPSV; listed as Homo sapiens) [compound 155]”, the Peptide exchange entry is recorded as “″+++″ (≥50% = +++)”.
Consider “517 (LLMPIPEGLTL; listed as Homo sapiens) [compound 517]”, for which the Peptide exchange result was “″+++″ (≥50% = +++)”.
On to “221 (ALYEEGLLL; listed as Homo sapiens) [compound 221]”, for which the Peptide exchange entry is reported as “″++″ (≥20% = ++)”.
For “409 (LLDAMNYHL; listed as Homo sapiens) [compound 409]”, the Peptide exchange entry is “″++″ (≥20% = ++)”.
Consider “20 (RMIEYFIDV; listed as Homo sapiens) [compound 20]”, for which the Peptide exchange entry is recorded as “″+++″ (≥50% = +++)”.
Consider “472 (KLLEVSDDPQV; listed as Homo sapiens) [compound 472]”, for which the Peptide exchange result is “″+++″ (≥50% = +++)”.
With “575 (YLISQVEGHQV; listed as Homo sapiens) [compound 575]” the entry was “″+++″ (≥50% = +++)”; with “144 (YIMEPSIFNTL; listed as Homo sapiens) [compound 144]”, “″+++″ (≥50% = +++)”.
Next, “613 (RLLPPGAVVAV; listed as Homo sapiens) [compound 613]”: “″+++″ (≥50% = +++)”; “10 (FLATFPLAAV; listed as Homo sapiens) [compound 10]”: “″++++″ (≥75% = ++++)”; “228 (AMQEYIAVV; listed as Homo sapiens) [compound 228]”: “″++″ (≥20% = ++)”.
Regarding “215 (QLINHLHAV; listed as Homo sapiens) [compound 215]”, the Peptide exchange result was “″+++″ (≥50% = +++)”.
As to “394 (LLAVIGGLVYL; listed as Homo sapiens) [compound 394]”, the Peptide exchange entry was “″+++″ (≥50% = +++)”.
“148 (ALNPEIVSV; listed as Homo sapiens) [compound 148]”: the Peptide exchange result is listed as “″++″ (≥20% = ++)”.
Consider “586 (KLKPGDLVGV; listed as Homo sapiens) [compound 586]”, for which the Peptide exchange entry is given as “″+++″ (≥50% = +++)”.
With “114 (SLVGEPILQNV; listed as Homo sapiens) [compound 114]”, the Peptide exchange result is “″++″ (≥20% = ++)”.
